Test results published in patent US20150344570A1 (published 2015).

T1: FcγRIIa R extracellular domain with C-terminal His tag (human, UniProt P12318 34-217)
T1 construct: extracellular domain; also called FcgRIIa R; 2aR; not shown: His tag at the C terminus
T1 sequence (looked up): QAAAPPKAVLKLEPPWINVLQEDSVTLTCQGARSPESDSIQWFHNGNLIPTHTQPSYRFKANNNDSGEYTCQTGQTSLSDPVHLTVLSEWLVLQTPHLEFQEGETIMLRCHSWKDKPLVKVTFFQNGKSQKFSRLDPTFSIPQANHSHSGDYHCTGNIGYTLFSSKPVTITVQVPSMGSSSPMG


Molecular target: T1, FcγRIIa R extracellular domain with …
Assay: SPR (Biacore), relative FcγRIIa R binding, GpH7-B3/GpL16-k0 = 100
Experimental: Analysis of interaction between objective antibody and the FcγR was carried out using Biacore T100 (GE Healthcare). HBS-EP+ (GE Healthcare) was used as the running buffer, and the measurement temperature was set to 25° C. Chips produced by immobilizing the antigen peptide by the amine coupling method to a Series S Sencor Chip CM5 (GE Healthcare), or alternatively, chips produced by allowing preliminarily biotinylated antigen peptides to interact with and immobilize onto a Series S Sensor Chip SA (certified) (GE Healthcare) were used. Antibodies of interest were captured onto an antigen peptide-immobilized chip, and allowed to interact to each FcγR diluted with running buffer. To regenerate and repeatedly use the chip, the antibodies captured on the chip were washed off by reacting 10 mM glycine-HCl, pH 1.5.

Row | Ho/Con_2aR | Binder
1 | 102 % of control | GpH7-B3 variant S337_02A/GpL16-k0 (antibody, human IgG1, kappa, homodimerized: alteration in both H chains; also called Ho Ab S337_02A) heavy: not shown light: DIVMTQSPLSLPVTPGEPASISCQASESLVHSNRNTYLHWYLQKPGQSPQLLIYKVSNRFSGVPDRFSGSGSGTDFTLKISRVEAEDVGVYYCSQNTHVPPTFGQGTKVEIERTVAAPSVFIFPPSDEQLKSGTASVVCLLNNFYPREAKVQWKVDNALQSGNSQESVTEQDSKDSTYSLSSTLTLSKADYEKHKVYACEVTHQGLSSPVTKSFNRGEC
2 | 120 % of control | GpH7-B3 variant K326_20W/GpL16-k0 (antibody, human IgG1, kappa, homodimerized: alteration in both H chains; also called Ho Ab K326_20W) heavy: not shown light: DIVMTQSPLSLPVTPGEPASISCQASESLVHSNRNTYLHWYLQKPGQSPQLLIYKVSNRFSGVPDRFSGSGSGTDFTLKISRVEAEDVGVYYCSQNTHVPPTFGQGTKVEIERTVAAPSVFIFPPSDEQLKSGTASVVCLLNNFYPREAKVQWKVDNALQSGNSQESVTEQDSKDSTYSLSSTLTLSKADYEKHKVYACEVTHQGLSSPVTKSFNRGEC
3 | 101 % of control | GpH7-B3 variant A330_12R/GpL16-k0 (antibody, human IgG1, kappa, homodimerized: alteration in both H chains; also called Ho Ab A330_12R) heavy: not shown light: DIVMTQSPLSLPVTPGEPASISCQASESLVHSNRNTYLHWYLQKPGQSPQLLIYKVSNRFSGVPDRFSGSGSGTDFTLKISRVEAEDVGVYYCSQNTHVPPTFGQGTKVEIERTVAAPSVFIFPPSDEQLKSGTASVVCLLNNFYPREAKVQWKVDNALQSGNSQESVTEQDSKDSTYSLSSTLTLSKADYEKHKVYACEVTHQGLSSPVTKSFNRGEC
4 | 120 % of control | GpH7-B3 variant A327_09D/GpL16-k0 (antibody, human IgG1, kappa, homodimerized: alteration in both H chains; also called Ho Ab A327_09D) heavy: not shown light: DIVMTQSPLSLPVTPGEPASISCQASESLVHSNRNTYLHWYLQKPGQSPQLLIYKVSNRFSGVPDRFSGSGSGTDFTLKISRVEAEDVGVYYCSQNTHVPPTFGQGTKVEIERTVAAPSVFIFPPSDEQLKSGTASVVCLLNNFYPREAKVQWKVDNALQSGNSQESVTEQDSKDSTYSLSSTLTLSKADYEKHKVYACEVTHQGLSSPVTKSFNRGEC
5 | 100 % of control | GpH7-B3 variant K334_02A/GpL16-k0 (antibody, human IgG1, kappa, homodimerized: alteration in both H chains; also called Ho Ab K334_02A) heavy: not shown light: DIVMTQSPLSLPVTPGEPASISCQASESLVHSNRNTYLHWYLQKPGQSPQLLIYKVSNRFSGVPDRFSGSGSGTDFTLKISRVEAEDVGVYYCSQNTHVPPTFGQGTKVEIERTVAAPSVFIFPPSDEQLKSGTASVVCLLNNFYPREAKVQWKVDNALQSGNSQESVTEQDSKDSTYSLSSTLTLSKADYEKHKVYACEVTHQGLSSPVTKSFNRGEC
6 | 110 % of control | GpH7-B3 variant K334_04F/GpL16-k0 (antibody, human IgG1, kappa, homodimerized: alteration in both H chains; also called Ho Ab K334_04F) heavy: not shown light: DIVMTQSPLSLPVTPGEPASISCQASESLVHSNRNTYLHWYLQKPGQSPQLLIYKVSNRFSGVPDRFSGSGSGTDFTLKISRVEAEDVGVYYCSQNTHVPPTFGQGTKVEIERTVAAPSVFIFPPSDEQLKSGTASVVCLLNNFYPREAKVQWKVDNALQSGNSQESVTEQDSKDSTYSLSSTLTLSKADYEKHKVYACEVTHQGLSSPVTKSFNRGEC
7 | 134 % of control | GpH7-B3 variant K326_15Y/GpL16-k0 (antibody, human IgG1, kappa, homodimerized: alteration in both H chains; also called Ho Ab K326_15Y) heavy: not shown light: DIVMTQSPLSLPVTPGEPASISCQASESLVHSNRNTYLHWYLQKPGQSPQLLIYKVSNRFSGVPDRFSGSGSGTDFTLKISRVEAEDVGVYYCSQNTHVPPTFGQGTKVEIERTVAAPSVFIFPPSDEQLKSGTASVVCLLNNFYPREAKVQWKVDNALQSGNSQESVTEQDSKDSTYSLSSTLTLSKADYEKHKVYACEVTHQGLSSPVTKSFNRGEC
8 | 122 % of control | GpH7-B3 variant H268_01G/GpL16-k0 (antibody, human IgG1, kappa, homodimerized: alteration in both H chains; also called Ho Ab H268_01G) heavy: not shown light: DIVMTQSPLSLPVTPGEPASISCQASESLVHSNRNTYLHWYLQKPGQSPQLLIYKVSNRFSGVPDRFSGSGSGTDFTLKISRVEAEDVGVYYCSQNTHVPPTFGQGTKVEIERTVAAPSVFIFPPSDEQLKSGTASVVCLLNNFYPREAKVQWKVDNALQSGNSQESVTEQDSKDSTYSLSSTLTLSKADYEKHKVYACEVTHQGLSSPVTKSFNRGEC
9 | 106 % of control | GpH7-B3 variant A330_01G/GpL16-k0 (antibody, human IgG1, kappa, homodimerized: alteration in both H chains; also called Ho Ab A330_01G) heavy: not shown light: DIVMTQSPLSLPVTPGEPASISCQASESLVHSNRNTYLHWYLQKPGQSPQLLIYKVSNRFSGVPDRFSGSGSGTDFTLKISRVEAEDVGVYYCSQNTHVPPTFGQGTKVEIERTVAAPSVFIFPPSDEQLKSGTASVVCLLNNFYPREAKVQWKVDNALQSGNSQESVTEQDSKDSTYSLSSTLTLSKADYEKHKVYACEVTHQGLSSPVTKSFNRGEC
10 | 104 % of control | GpH7-B3 variant A327_10E/GpL16-k0 (antibody, human IgG1, kappa, homodimerized: alteration in both H chains; also called Ho Ab A327_10E) heavy: not shown light: DIVMTQSPLSLPVTPGEPASISCQASESLVHSNRNTYLHWYLQKPGQSPQLLIYKVSNRFSGVPDRFSGSGSGTDFTLKISRVEAEDVGVYYCSQNTHVPPTFGQGTKVEIERTVAAPSVFIFPPSDEQLKSGTASVVCLLNNFYPREAKVQWKVDNALQSGNSQESVTEQDSKDSTYSLSSTLTLSKADYEKHKVYACEVTHQGLSSPVTKSFNRGEC
11 | 113 % of control | GpH7-B3 variant G237_04F/GpL16-k0 (antibody, human IgG1, kappa, homodimerized: alteration in both H chains; also called Ho Ab G237_04F) heavy: not shown light: DIVMTQSPLSLPVTPGEPASISCQASESLVHSNRNTYLHWYLQKPGQSPQLLIYKVSNRFSGVPDRFSGSGSGTDFTLKISRVEAEDVGVYYCSQNTHVPPTFGQGTKVEIERTVAAPSVFIFPPSDEQLKSGTASVVCLLNNFYPREAKVQWKVDNALQSGNSQESVTEQDSKDSTYSLSSTLTLSKADYEKHKVYACEVTHQGLSSPVTKSFNRGEC
12 | 102 % of control | GpH7-B3 variant K334_05P/GpL16-k0 (antibody, human IgG1, kappa, homodimerized: alteration in both H chains; also called Ho Ab K334_05P) heavy: not shown light: DIVMTQSPLSLPVTPGEPASISCQASESLVHSNRNTYLHWYLQKPGQSPQLLIYKVSNRFSGVPDRFSGSGSGTDFTLKISRVEAEDVGVYYCSQNTHVPPTFGQGTKVEIERTVAAPSVFIFPPSDEQLKSGTASVVCLLNNFYPREAKVQWKVDNALQSGNSQESVTEQDSKDSTYSLSSTLTLSKADYEKHKVYACEVTHQGLSSPVTKSFNRGEC
13 | 105 % of control | GpH7-B3 variant I336_08L/GpL16-k0 (antibody, human IgG1, kappa, homodimerized: alteration in both H chains; also called Ho Ab I336_08L) heavy: not shown light: DIVMTQSPLSLPVTPGEPASISCQASESLVHSNRNTYLHWYLQKPGQSPQLLIYKVSNRFSGVPDRFSGSGSGTDFTLKISRVEAEDVGVYYCSQNTHVPPTFGQGTKVEIERTVAAPSVFIFPPSDEQLKSGTASVVCLLNNFYPREAKVQWKVDNALQSGNSQESVTEQDSKDSTYSLSSTLTLSKADYEKHKVYACEVTHQGLSSPVTKSFNRGEC
14 | 106 % of control | GpH7-B3 variant K334_10E/GpL16-k0 (antibody, human IgG1, kappa, homodimerized: alteration in both H chains; also called Ho Ab K334_10E) heavy: not shown light: DIVMTQSPLSLPVTPGEPASISCQASESLVHSNRNTYLHWYLQKPGQSPQLLIYKVSNRFSGVPDRFSGSGSGTDFTLKISRVEAEDVGVYYCSQNTHVPPTFGQGTKVEIERTVAAPSVFIFPPSDEQLKSGTASVVCLLNNFYPREAKVQWKVDNALQSGNSQESVTEQDSKDSTYSLSSTLTLSKADYEKHKVYACEVTHQGLSSPVTKSFNRGEC
15 | 133 % of control | GpH7-B3 variant K326_04F/GpL16-k0 (antibody, human IgG1, kappa, homodimerized: alteration in both H chains; also called Ho Ab K326_04F) heavy: not shown light: DIVMTQSPLSLPVTPGEPASISCQASESLVHSNRNTYLHWYLQKPGQSPQLLIYKVSNRFSGVPDRFSGSGSGTDFTLKISRVEAEDVGVYYCSQNTHVPPTFGQGTKVEIERTVAAPSVFIFPPSDEQLKSGTASVVCLLNNFYPREAKVQWKVDNALQSGNSQESVTEQDSKDSTYSLSSTLTLSKADYEKHKVYACEVTHQGLSSPVTKSFNRGEC
16 | 133 % of control | GpH7-B3 variant K326_07I/GpL16-k0 (antibody, human IgG1, kappa, homodimerized: alteration in both H chains; also called Ho Ab K326_07I) heavy: not shown light: DIVMTQSPLSLPVTPGEPASISCQASESLVHSNRNTYLHWYLQKPGQSPQLLIYKVSNRFSGVPDRFSGSGSGTDFTLKISRVEAEDVGVYYCSQNTHVPPTFGQGTKVEIERTVAAPSVFIFPPSDEQLKSGTASVVCLLNNFYPREAKVQWKVDNALQSGNSQESVTEQDSKDSTYSLSSTLTLSKADYEKHKVYACEVTHQGLSSPVTKSFNRGEC
17 | 131 % of control | GpH7-B3 variant K326_08L/GpL16-k0 (antibody, human IgG1, kappa, homodimerized: alteration in both H chains; also called Ho Ab K326_08L) heavy: not shown light: DIVMTQSPLSLPVTPGEPASISCQASESLVHSNRNTYLHWYLQKPGQSPQLLIYKVSNRFSGVPDRFSGSGSGTDFTLKISRVEAEDVGVYYCSQNTHVPPTFGQGTKVEIERTVAAPSVFIFPPSDEQLKSGTASVVCLLNNFYPREAKVQWKVDNALQSGNSQESVTEQDSKDSTYSLSSTLTLSKADYEKHKVYACEVTHQGLSSPVTKSFNRGEC
18 | 105 % of control | GpH7-B3 variant K334_08L/GpL16-k0 (antibody, human IgG1, kappa, homodimerized: alteration in both H chains; also called Ho Ab K334_08L) heavy: not shown light: DIVMTQSPLSLPVTPGEPASISCQASESLVHSNRNTYLHWYLQKPGQSPQLLIYKVSNRFSGVPDRFSGSGSGTDFTLKISRVEAEDVGVYYCSQNTHVPPTFGQGTKVEIERTVAAPSVFIFPPSDEQLKSGTASVVCLLNNFYPREAKVQWKVDNALQSGNSQESVTEQDSKDSTYSLSSTLTLSKADYEKHKVYACEVTHQGLSSPVTKSFNRGEC
19 | 139 % of control | GpH7-B3 variant K326_03V/GpL16-k0 (antibody, human IgG1, kappa, homodimerized: alteration in both H chains; also called Ho Ab K326_03V) heavy: not shown light: DIVMTQSPLSLPVTPGEPASISCQASESLVHSNRNTYLHWYLQKPGQSPQLLIYKVSNRFSGVPDRFSGSGSGTDFTLKISRVEAEDVGVYYCSQNTHVPPTFGQGTKVEIERTVAAPSVFIFPPSDEQLKSGTASVVCLLNNFYPREAKVQWKVDNALQSGNSQESVTEQDSKDSTYSLSSTLTLSKADYEKHKVYACEVTHQGLSSPVTKSFNRGEC
20 | 107 % of control | GpH7-B3 variant G237_20W/GpL16-k0 (antibody, human IgG1, kappa, homodimerized: alteration in both H chains; also called Ho Ab G237_20W) heavy: not shown light: DIVMTQSPLSLPVTPGEPASISCQASESLVHSNRNTYLHWYLQKPGQSPQLLIYKVSNRFSGVPDRFSGSGSGTDFTLKISRVEAEDVGVYYCSQNTHVPPTFGQGTKVEIERTVAAPSVFIFPPSDEQLKSGTASVVCLLNNFYPREAKVQWKVDNALQSGNSQESVTEQDSKDSTYSLSSTLTLSKADYEKHKVYACEVTHQGLSSPVTKSFNRGEC
21 | 105 % of control | GpH7-B3 variant I332_06M/GpL16-k0 (antibody, human IgG1, kappa, homodimerized: alteration in both H chains; also called Ho Ab I332_06M) heavy: not shown light: DIVMTQSPLSLPVTPGEPASISCQASESLVHSNRNTYLHWYLQKPGQSPQLLIYKVSNRFSGVPDRFSGSGSGTDFTLKISRVEAEDVGVYYCSQNTHVPPTFGQGTKVEIERTVAAPSVFIFPPSDEQLKSGTASVVCLLNNFYPREAKVQWKVDNALQSGNSQESVTEQDSKDSTYSLSSTLTLSKADYEKHKVYACEVTHQGLSSPVTKSFNRGEC
